Source: US20160213766A1 (VENTRIA BIOSCIENCE, published 2016)

Target: the molecule itself
Experiment: Western blot under non-reducing, non-heated conditions; self-association

B1: rice-derived CTB.OspA fusion protein (other)
chain: TPQNITDLCAEYHNTQIHTLNDKIFSYTESLAGKREMAIITFKNGATFQVEVPGSQHIDSQKKAIERMKDTLRIAYLTEAKVEKLCVWNNKTPHAIAAISMANPGPGPGCKQNVSSLDEKNSVSVDLPGEMKVLVSKEKNKDGKYDLIATVDKLELKGTSDKNNGSGVLEGVKADKSKVKLTISDDLGQTTLEVFKEDGKTLVSKKVTSKDKSSTEEKFNEKGEVSEKIITRADGTRLEYTGIKSDGSGKAKEVLKGYVLEGTLTAEKTTLVVKEGTVTLSKNIAKSGEVSVELNDADSSAATKKTAAWNSGTSTLTITVNSKKTKDLVFTKENTITVQQYDSAGTKLEGSAVEITKLDEIKNALK
notes: also called OspA-CTB fusion protein; rice CTB.OspA fusion protein
binding result: binds
